These results are taken from PMC7465229.

The data set deals with H5N1 influenza A virus, whole virion (hemagglutinin presumed target) (Influenza A virus H5N1 (A/wild duck/Korea/SNU50-5/2011)). Kind of data set: rGO fluorescence recovery. Particulars: assay buffer, pH and temperature not stated ([…].

What is called Kd is the concentration at which binding is half-saturated. Read a high Kd as a looser complex. The sequence GACCGTGTCAGCGGGGACTAGCGGTG [tHBA1] showed a Kd of 492 nM.

For the sequence “ATGCGGATCCCGCGCGGGTCTGAGGAGTGCGCGGTGCCAGTGAGTGCGCGAAGCTTGCGC [HBA2]”, the Kd was found to be 122 nM.

With “ATGCGGATCCCGCGCGCGACCGTGTCAGCGGGGACTAGCGGTGTAGCGCGAAGCTTGCGC [HBA1]”, the Kd worked out at 70 nM.

As to CCGCGCGGGTCTGAGGAGTGCGCGG [tHBA2], the Kd worked out at 1320 nM.
